B1: Histone-lysine N-methyltransferase 2A, residues 1148 to 1194; numbered along this chain, Q03164 (parent)
chain: KGRRSRRCGQCPGCQVPEDCGVCTNCLDKPKFGGRNIKKQCCKMRKC

Variants of: B1
Test: abundance fitness (aPCA) (normalised: wild type 0, dead -1); higher = more abundant; growth selection in yeast, the domain comes from the species named
Details: Homo sapiens

Abundance fitness: each site, then its substitutions
V16: R 0.196 | W -0.285 | Q 0.223 | H -0.3 | T 0.173 | L 0.205
R4: W -0.54 | A -0.035 | S -0.004 | I -0.074 | F -0.15 | G 0.125 | M 0.141 | P -0.01 | E 0.068
Q15: S -0.313 | V -0.25 | W -0.468 | H -0.355 | D -0.463 | Y -0.727
C41: T -0.195 | P 0.028 | A -0.104 | W -0.095 | K -0.123 | G 0.04
K38: A -0.099 | T -0.221 | M -0.136 | Q -0.348 | C -0.363
C23: W -1.03 | N -0.766 | G -0.648 | K -1 | R -0.884 | D -0.516 | Q -0.623 | H -1.07
R45: T -0.597 | V -0.492 | S -0.349 | Q -0.52 | I -0.439 | E -0.682 | K -0.529 | A -0.659 | H -0.737
C8: R -0.809 | G -0.457 | D -0.442 | P -0.613 | K -0.583 | F -0.704 | A -0.786
G2: A -0.403 | S -0.213 | F -0.701
P12: N -0.465 | W -0.723 | M -0.081 | E -0.439
T24: S -0.256 | V -0.479 | E 0.038 | A -0.143 | M -0.149 | L -0.477 | P -0.091 | K -0.297 | F -0.412 | Y -0.238 | C -0.441
C47: W -0.527 | F -0.52 | T -0.884 | S -0.619
C26: R -0.602 | P -0.75 | L -0.902 | T -0.959 | D -0.76 | K -0.785 | M -0.876 | Y -0.851 | H -0.988
F32: Y -0.068 | Q -0.09 | E 0.186 | A -0.013 | K -0.39 | T -0.272 | P -0.257
G13: T -0.455 | W -0.708 | H -0.884 | P 0.152 | N -0.266 | K -0.678 | Q -0.068 | D -0.313
G9: L -0.562 | M -0.256 | H -0.39 | P -0.738 | I -0.452 | V -0.726 | W -0.553
C20: N -0.898 | E -0.736 | K -0.594
P30: E 0.109 | T -0.312 | H -0.26 | Q -0.381 | D -0.77 | W -0.711 | R -0.432 | Y -0.712 | L -0.361 | F -0.705
S5: C -0.644 | E -0.091 | P -0.137 | I -0.604 | K -0.093 | Y -0.459 | R -0.226 | H -0.25
L27: K -0.293 | W -0.554 | Y -0.334 | D -0.419 | H -0.34 | E -0.129 | G -0.583
R7: T -0.153 | V 0.075 | K -0.103 | C -0.493 | L -0.092 | D 0.159 | H -0.435
K43: S -0.112 | Q -0.215 | E 0.179 | W -0.12 | A -0.015
C11: L -0.967 | Q -0.915 | W -0.674 | H -0.495 | F -0.719 | T -0.519 | G -0.643
I37: Y -0.265 | P -0.554 | M 0.002 | S 0.037 | L -0.159 | C 0.095 | E 0.274
C42: L -0.651 | D -0.849 | P -0.709 | F -0.647 | E -0.604 | R -0.569 | H -0.809 | I -1 | M -1.01 | Y -0.792 | Q -0.955
E18: T -0.164 | H -0.17 | R -0.049 | D -0.182 | Q -0.177 | K -0.002
Q10: D -0.589 | H -0.189 | E -0.183 | M -0.246 | R -0.234 | G -0.235 | S -0.069 | P -0.48 | Y -0.69
K29: E -0.519 | Y -0.564 | H -0.618 | W -0.686 | F -0.648
P17: N -0.313 | K 0.095 | E 0.074 | I -0.358 | Q -0.159 | V -0.057
K46: V 0.039 | I 0.356 | W -0.31 | S -0.12 | D 0.231
K39: M -0.124 | Q 0.042 | P -0.06 | R -0.185 | V 0.063 | H -0.11
G33: V -0.418 | A -0.394 | M -0.494 | C -0.677 | W -0.853 | P -0.707 | Q -0.535
D28: A -0.475 | S -0.626 | V -0.374 | R -0.618 | M -0.761 | E -0.502 | L -0.921 | Q -0.509 | T -1.09 | W -1.05
Q40: V -0.042 | G 0.034 | I -0.772 | W -0.545 | S -0.103 | E 0.312 | Y -0.493 | M -0.138 | N -0.461 | C -0.284 | L -0.177 | F -0.089
D19: K -0.898 | Y -0.859 | M -0.339 | T -0.865 | C -0.977 | H -0.677 | G -0.96 | L -0.878 | F -1.02
R6: N 0.158 | H 0.089 | P 0.054 | D 0.143 | L -0.014 | M -0.171 | G -0.088 | T -0.179 | S 0.06
G21: H -0.375 | D -0.872 | F -0.684 | R -0.416 | Q -0.918 | Y -0.769 | E -0.677 | V -0.7 | W -0.88 | I -0.995 | M -0.278
N25: G -0.342 | V -0.02 | Q -0.481 | M -0.084 | W -0.107 | S 0.024 | L -0.536
C14: D -0.779 | P -0.765 | S -0.49 | M -0.713 | N -0.288
G34: E -0.133 | I -0.787 | C -0.32 | V -0.453 | R -0.52 | F -0.409 | A -0.463 | K -0.478 | W -0.906 | P -0.448 | Y -0.774 | S -0.288
R3: C 0.012 | Q 0.023 | E -0.038 | D -0.185 | Y -0.301 | I -0.281 | N 0.017
N36: S -0.523 | L -0.651 | P -0.62 | E 0.003 | V -0.814 | F -0.694 | I -0.952
K1: D -0.341 | E 0.47
R35: I -0.438 | V -0.089 | K 0.19 | S -0.01 | H 0.128
V22: L -0.166 | E -0.158 | Y -0.053 | R -0.021 | M -0.385 | S 0.061
K31: T -0.264 | L -0.316 | E -0.271 | Q -0.285 | S -0.404 | M -0.444 | H -0.429
M44: V -0.213 | D -0.242 | A -0.012 | E 0.003 | S -0.335 | P -0.659 | H -0.181
